Measured values as given in patent publication US20230002466A1 (ELPIS BIOPHARMACEUTICALS, published 2023).

T1: human IL2Rβ (human, UniProt P14784 27-239)
T1 construct: also called IL2β; CD122
T1 sequence (looked up): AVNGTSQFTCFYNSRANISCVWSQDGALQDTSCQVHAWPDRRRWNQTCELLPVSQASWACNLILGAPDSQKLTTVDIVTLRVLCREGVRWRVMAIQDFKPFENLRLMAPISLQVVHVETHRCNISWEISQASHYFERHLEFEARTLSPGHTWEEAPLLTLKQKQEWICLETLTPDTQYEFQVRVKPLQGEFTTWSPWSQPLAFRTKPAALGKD

T2: human IL2Rα (human, UniProt P01589 22-213, limits assumed)
T2 construct: also called IL2α; CD25
T2 sequence (looked up): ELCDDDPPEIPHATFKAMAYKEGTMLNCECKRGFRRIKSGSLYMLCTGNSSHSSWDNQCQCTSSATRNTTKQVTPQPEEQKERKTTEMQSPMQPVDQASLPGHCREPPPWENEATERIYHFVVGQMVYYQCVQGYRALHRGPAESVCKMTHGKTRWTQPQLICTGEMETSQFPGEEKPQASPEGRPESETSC


Columns and labels:
human IL2Rβ = target: T1, human IL2Rβ; assay: ELISA, receptor coated, anti-human Fc HRP
Description: (§1) For bivalent Fc-fusion proteins, human IL2Rα, and human IL2Rβ were each immobilized in a 384 well plate at final concentration of 2 μg/mL in 1×PBS in total volume of 25 μL per well. The plate was incubated overnight at 4° C. followed by blocking with 80 μL of superblock per well for 1 hour. The purified engineered IL2 mutant Fc fusion protein at 100 nM was 3-fold serial diluted 12 times. Each dilution was added to IL2Rα and IL2Rβ wells in parallel. The engineered IL2 mutant binding was detected by adding 50 μL of anti-human Fc HRP diluted at 1:5000 in 1×PBST. In between each step, the plate was washed 3 times with 1×PBST in a plate washer. The plate was then developed with 25 μl of TMB substrate for 5 mins and stopped by adding 25 μl of 2N sulfuric acid. The plate was read at OD450 nm Biotek plate reader and the EC50 was analyzed with Prism 8.1 software.

human IL2Rα = target: T2, human IL2Rα; assay: ELISA, receptor coated, anti-human Fc HRP
Description: as §1

Binder | EC50 (human IL2Rβ) [pM] | relative activity IL2Rβ (EC50: fold) against EP085 (human IL2Rβ) [fold] | EC50 (human IL2Rα) [pM] | relative activity IL2Rα (EC50: fold) against EP085 (human IL2Rα) [fold]
EP083 (Fc fusion) APTSSSTKKTQLQLEHLLLDLQMILNGINNYKNPKLTEMLTFKFYMPKKATELKHLQCLEEELKPLEEVLNLAQSKNFHLEPSDVISNINVLVQELKGSETTFMCEYADETATIVEFLNRWITFCQSIISTLTEPKSCDKTHTCPLCPAPEAAGGPSVFLFPPKPKDTLMISRTPEVTCVVVDVSHEDPEVKFNWYVDGVEVHNAKTKPREEQYNSTYRVVSVLTVLHQDWLNGKEYKCKVSNKALGAPIEKTISKAKGQPREPQVYTLPPSRDELTKNQVSLTCLVKGFYPSDIAVEWESNGQPENNYKATPPVLDSDGSFFLYSKLTVDKSRWQQGNVFSCSVMHEALHNHYTQKSLSLSPGK | 280 | 1080 | 46 | 1.09
EP004-Fc, Bivalent (EP078) (Fc fusion, Human IgG1 with L234A, L235A, P329G) APTSSSTKKTQLQLEHLLLDLQMILNGINNYKNPKLTRMLTFKFYMPKKATELKHLQCLEEELKPLEEVLNLAQSKNFHLCPTDTIENITVLIQELKGSETTFMCEYADETATIVEFLNRWITFCQSIISTLTEPKSCDKTHTCPLCPAPEAAGGPSVFLFPPKPKDTLMISRTPEVTCVVVDVSHEDPEVKFNWYVDGVEVHNAKTKPREEQYNSTYRVVSVLTVLHQDWLNGKEYKCKVSNKALGAPIEKTISKAKGQPREPQVYTLPPSRDELTKNQVSLTCLVKGFYPSDIAVEWESNGQPENNYKATPPVLDSDGSFFLYSKLTVDKSRWQQGNVFSCSVMHEALHNHYTQKSLSLSPGK | 2100 | 142 | 41 | 1.24

Continued by falling EC50 (human IL2Rβ), values first:

EC50 (human IL2Rβ) [pM] | relative activity IL2Rβ (EC50: fold) against EP085 (human IL2Rβ) [fold] | EC50 (human IL2Rα) [pM] | relative activity IL2Rα (EC50: fold) against EP085 (human IL2Rα) [fold] | Binder
2600 | 117 | 41 | 1.23 | EP084 (Fc fusion) APTSSSTKKTQLQLEHLLLDLQMILNGINNYKNPKLTRMLTFKFYMPKKATELKHLQCLEEELKPLEEVLNLAQSKNFHLTAEDVVTNITVLVQELKGSETTFMCEYADETATIVEFLNRWITFCQSIISTLTEPKSCDKTHTCPLCPAPEAAGGPSVFLFPPKPKDTLMISRTPEVTCVVVDVSHEDPEVKFNWYVDGVEVHNAKTKPREEQYNSTYRVVSVLTVLHQDWLNGKEYKCKVSNKALGAPIEKTISKAKGQPREPQVYTLPPSRDELTKNQVSLTCLVKGFYPSDIAVEWESNGQPENNYKATPPVLDSDGSFFLYSKLTVDKSRWQQGNVFSCSVMHEALHNHYTQKSLSLSPGK
410 | 727 | 640 | -12.7 | EP001-Fc, Bivalent (EP079) (Fc fusion, Human IgG1 with L234A, L235A, P329G) APTSSSTKKTQLQLEHLLLDLQMILNGINNYKNPKLTRMLTFKFYMPKKATELKHLQCLEEELKPLEEVLNLAQSKNFHLTARDAVDNMRVIIQELKGSETTFMCEYADETATIVEFLNRWITFCQSIISTLTEPKSCDKTHTCPLCPAPEAAGGPSVFLFPPKPKDTLMISRTPEVTCVVVDVSHEDPEVKFNWYVDGVEVHNAKTKPREEQYNSTYRVVSVLTVLHQDWLNGKEYKCKVSNKALGAPIEKTISKAKGQPREPQVYTLPPSRDELTKNQVSLTCLVKGFYPSDIAVEWESNGQPENNYKATPPVLDSDGSFFLYSKLTVDKSRWQQGNVFSCSVMHEALHNHYTQKSLSLSPGK
250 | 1190 | 28 | 1.78 | EP003-Fc, Bivalent (EP082) (Fc fusion, Human IgG1 with L234A, L235A, P329G) APTSSSTKKTQLQLEHLLLDLQMILNGINNYKNPKLTRMLTFKFYMPKKATELKHLQCLEEELKPLEEVLNLAQSKNFHLGVTDSISNAIVLARELKGSETTFMCEYADETATIVEFLNRWITFCQSIISTLTEPKSCDKTHTCPLCPAPEAAGGPSVFLFPPKPKDTLMISRTPEVTCVVVDVSHEDPEVKFNWYVDGVEVHNAKTKPREEQYNSTYRVVSVLTVLHQDWLNGKEYKCKVSNKALGAPIEKTISKAKGQPREPQVYTLPPSRDELTKNQVSLTCLVKGFYPSDIAVEWESNGQPENNYKATPPVLDSDGSFFLYSKLTVDKSRWQQGNVFSCSVMHEALHNHYTQKSLSLSPGK
